In the supplement of paper PMC7877785:
± gives the uncertainty stated by the source.

Assay: self-splicing fitness, log relative to wild type (ln ratio); higher = more splicing; Tetrahymena group I intron in knt gene, E. coli kanamycin selection, DiMSum; sequences stand for … in CUCUCU…GGAGGGAAAAGUUAUCAGGCAUGCACCUGGUAGCUAGUCUUUAAACCAAUAGAUUGCAUCGGUUUAAAAGGCAAGACCGUCAAAUUGCGGGAAAGGGGUCAACAGCCGUUCAGUACCAAGUCUCAGGGGAAACUUUGAGAUGGCCUUGCAAAGGGUAUGGUAAUAAGCUGACGGACAUGGUCCUAACCACGCAGCCAAGUCCUAAGUCAACAGAUCUUCUGUUGAUAUGGAUGCAGUUCACAGACUAAAUGUCGGUCGGGGAAGAUGUAUUCUUCUCAUAAGAUAUAGUCGGACCUCUCCUUAAUGGGAGCUAGCGGAUGAAGUGAUGCAACACUGGAGCCGCUGGGAACUAAUUUGUAUGCGAAAGUAUAUUGAUUAGUUUUGGAGUACUCGUGGUCG
In short: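 Six replicate transformations of E. coli BL21(DE3) with a pET-22b(+) library were grown overnight at 37°C or 30°C. The library randomised all eight P1ex-region intron nucleotides, the intron lying in the knt kanamycin-resistance gene, and plates were LB agar with or without 25 μg/mL kanamycin plus 100 μg/mL carbenicillin, 50 μM IPTG and 0.2% rhamnose. Pooled colonies were amplicon-sequenced on an Illumina HiSeq 2500, and fitness is the DiMSum error-weighted combination of wild-type-normalised replicate fold changes, kanamycin versus none.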

Sequence	self-splicing fitness (ln) (37 °C)	self-splicing fitness (ln) (30 °C)
UGGCAGCAAUAUUACGAAAC	-1.52 ± 0.32	
UUGAAGCAAUAUUACGGGCG	0.407 ± 0.084	-0.128 ± 0.061
UCUUAGCAAUAUUACGCAUG	-0.995 ± 0.19	-1.98 ± 0.18
GUCAAGCAAUAUUACGUGCU	-2.7 ± 0.23	-3.07 ± 0.13
GCAAAGCAAUAUUACGCACC	-1.45 ± 0.16	-1.15 ± 0.17
GUGCAGCAAUAUUACGUAAU	0.129 ± 0.079	-0.833 ± 0.06
GCCGAGCAAUAUUACGAGGU	-2.23 ± 0.25	-4 ± 0.3
UACAAGCAAUAUUACGACCA	-0.203 ± 0.16	-0.29 ± 0.12
UUGAAGCAAUAUUACGCACG	-0.521 ± 0.15	-0.255 ± 0.15
UCCUAGCAAUAUUACGCCUC	-2.29 ± 0.39	-2.62 ± 0.27
CGAGAGCAAUAUUACGUUCG	-1.73 ± 0.23	-3.2 ± 0.2
GAGCAGCAAUAUUACGUCAG	-2.12 ± 0.26	-3.23 ± 0.21
AGCUAGCAAUAUUACGAAAG	-2.77 ± 0.25	-3.5 ± 0.19
AAACAGCAAUAUUACGAGGG	-2.33 ± 0.15	-3.69 ± 0.15
CGUUAGCAAUAUUACGUAUU	-2.64 ± 0.19	-3.02 ± 0.18
AAGUAGCAAUAUUACGAGUA	-1.86 ± 0.18	-1.79 ± 0.15
AAAGAGCAAUAUUACGGAGG	-2.3 ± 0.23	-3.48 ± 0.22
GGGAAGCAAUAUUACGACCU		-2.31 ± 0.27
GAAGAGCAAUAUUACGCGGG	-2.65 ± 0.41	-3.24 ± 0.28
CUAGAGCAAUAUUACGCGAA	-2.09 ± 0.43	-3.1 ± 0.38
GCCCAGCAAUAUUACGCACU	0.216 ± 0.12	-0.532 ± 0.075
CUGCAGCAAUAUUACGUUCA	-1.97 ± 0.15	-3.81 ± 0.2
GCCUAGCAAUAUUACGGCAA	-1.75 ± 0.14	-2.64 ± 0.15
CGAGAGCAAUAUUACGAGUG	-0.803 ± 0.14	-3.53 ± 0.26
AAGUAGCAAUAUUACGGGCG	-1.53 ± 0.14	-1.71 ± 0.11

Sequence	self-splicing fitness (ln) (37 °C)	self-splicing fitness (ln) (30 °C)
CGCAAGCAAUAUUACGGAAC	-2.87 ± 0.32	-3.07 ± 0.21
CGCCAGCAAUAUUACGAACG	0.0565 ± 0.12	-0.982 ± 0.097
UUGGAGCAAUAUUACGCGGU	-2.14 ± 0.38	-2.83 ± 0.26
CGUAAGCAAUAUUACGCAGC	-2.3 ± 0.39	
CAAGAGCAAUAUUACGAUUU	-2.45 ± 0.16	-3.11 ± 0.2
CUGAAGCAAUAUUACGGCAU	-3.52 ± 0.31	-2.91 ± 0.12
AGACAGCAAUAUUACGACCA	-0.823 ± 0.13	-0.623 ± 0.11
UUUUAGCAAUAUUACGGGGA	-0.366 ± 0.14	-1.56 ± 0.16
CCAUAGCAAUAUUACGCCUU	-3.02 ± 0.22	-3.13 ± 0.22
CCGUAGCAAUAUUACGCUAC	-1.76 ± 0.21	-4.65 ± 0.38
GAUCAGCAAUAUUACGAUCA	-0.636 ± 0.097	-0.53 ± 0.13
AGAUAGCAAUAUUACGGCGC	-0.0937 ± 0.15	-1.32 ± 0.14
CGCUAGCAAUAUUACGUCGU	-2.87 ± 0.23	-3.7 ± 0.37
ACAAAGCAAUAUUACGGCGA	0.19 ± 0.094	-0.177 ± 0.072
UAUUAGCAAUAUUACGGGAU	-2.61 ± 0.41	
GAUUAGCAAUAUUACGCAGG	-0.28 ± 0.27	
GCUCAGCAAUAUUACGGAGU	-3.35 ± 0.32	-4.36 ± 0.29
ACAGAGCAAUAUUACGCGCC	-1.83 ± 0.42	-3.3 ± 0.36
UAAAAGCAAUAUUACGACAC	-0.594 ± 0.17	-1.88 ± 0.15
CAGAAGCAAUAUUACGGCGC	-1.6 ± 0.31	-3.28 ± 0.32
UCACAGCAAUAUUACGUGGG	-2.68 ± 0.12	-3.34 ± 0.12
GACCAGCAAUAUUACGCUUG	-0.56 ± 0.11	-0.638 ± 0.089
UAUUAGCAAUAUUACGUAUU	-1.25 ± 0.14	-3.62 ± 0.17
GCACAGCAAUAUUACGUGAA	-0.102 ± 0.068	0.0235 ± 0.053
ACGCAGCAAUAUUACGACAG	-0.445 ± 0.099	-1.11 ± 0.076

Sequence	self-splicing fitness (ln) (37 °C)	self-splicing fitness (ln) (30 °C)
CGCAAGCAAUAUUACGUGGA	-1.6 ± 0.095	-3.37 ± 0.16
AUUUAGCAAUAUUACGGUGU	-1.48 ± 0.11	-2.3 ± 0.095
CGCCAGCAAUAUUACGGGCC	-1.72 ± 0.2	-3.13 ± 0.21
CGCAAGCAAUAUUACGGGGU	-1.33 ± 0.12	-4.04 ± 0.18
CGCAAGCAAUAUUACGAACA	0.252 ± 0.1	-0.432 ± 0.1
AGGAAGCAAUAUUACGCGUU	-1.01 ± 0.17	-2.55 ± 0.17
AGUUAGCAAUAUUACGUCAG	-3.25 ± 0.19	-3.99 ± 0.29
CUCCAGCAAUAUUACGCUAG	-2.7 ± 0.2	-3.91 ± 0.17
CCAGAGCAAUAUUACGGGUC	-1.53 ± 0.28	-3.22 ± 0.43
AAGGAGCAAUAUUACGGCGU	-0.923 ± 0.12	-1.33 ± 0.13
GCAGAGCAAUAUUACGCGUA	-2.22 ± 0.25	-2.94 ± 0.33
UCUCAGCAAUAUUACGGGUG	-0.219 ± 0.083	-0.627 ± 0.072
CGACAGCAAUAUUACGUGGG	-1.54 ± 0.1	-3.19 ± 0.14
GCCCAGCAAUAUUACGCUAA	-0.549 ± 0.09	-0.87 ± 0.083
GCACAGCAAUAUUACGUCAC	-2.42 ± 0.32	-3.68 ± 0.26
ACUCAGCAAUAUUACGGGAA	-0.568 ± 0.095	-0.98 ± 0.088
CAAUAGCAAUAUUACGGAUC		-3.15 ± 0.37
UGCUAGCAAUAUUACGCGUG	-0.462 ± 0.082	-0.934 ± 0.074
UUGCAGCAAUAUUACGCUGG		-3.51 ± 0.32
GUCUAGCAAUAUUACGGAUG	0.0916 ± 0.19	-1.93 ± 0.2
AAAAAGCAAUAUUACGCACG	-0.508 ± 0.14	-1.4 ± 0.094
UAUAAGCAAUAUUACGUCAU	-0.173 ± 0.15	-3.37 ± 0.22
UGACAGCAAUAUUACGUGCG	-0.119 ± 0.097	-1.12 ± 0.086
GAAAAGCAAUAUUACGGCCA	0.81 ± 0.21	-1.03 ± 0.16
AAUCAGCAAUAUUACGCGUA	0.0946 ± 0.082	-0.281 ± 0.068

Sequence	self-splicing fitness (ln) (37 °C)	self-splicing fitness (ln) (30 °C)
CGAUAGCAAUAUUACGAACC	-0.913 ± 0.28	-2.68 ± 0.27
CUACAGCAAUAUUACGCAAC	-3.03 ± 0.29	-3.66 ± 0.36
GUAUAGCAAUAUUACGGUUU	-1.29 ± 0.16	-0.844 ± 0.089
GUAAAGCAAUAUUACGCGGG	-2.08 ± 0.19	-1.74 ± 0.12
ACAUAGCAAUAUUACGUCAG	-3.18 ± 0.18	-2.66 ± 0.13
CCAAAGCAAUAUUACGCUCC	-1.74 ± 0.36	-1.01 ± 0.2
GCUAAGCAAUAUUACGGUAA	-1.04 ± 0.16	-1.65 ± 0.17
AAUGAGCAAUAUUACGUGGU	-3.49 ± 0.23	-2.41 ± 0.11
UGCCAGCAAUAUUACGUUCU	-1.23 ± 0.14	-2.37 ± 0.17
GGCUAGCAAUAUUACGUUGC	-1.38 ± 0.2	-1.94 ± 0.17
GUUUAGCAAUAUUACGGGAA	-2.04 ± 0.19	-2.96 ± 0.23
AACCAGCAAUAUUACGGAAA	-0.275 ± 0.088	-1.73 ± 0.097
GAGUAGCAAUAUUACGAGUG	-0.452 ± 0.11	-2.34 ± 0.091
GGAAAGCAAUAUUACGUGGC	-2.46 ± 0.34	-2.85 ± 0.38
CAAGAGCAAUAUUACGUUAA	-2.33 ± 0.22	-3.49 ± 0.35
GCUGAGCAAUAUUACGUCUA	-1.06 ± 0.14	-2.85 ± 0.22
CUCAAGCAAUAUUACGUAUC	-1.79 ± 0.14	-2.94 ± 0.14
UCUCAGCAAUAUUACGGAAA	-0.892 ± 0.14	-1.45 ± 0.14
CUUUAGCAAUAUUACGUGGA	-3.58 ± 0.31	-3.4 ± 0.4
ACCUAGCAAUAUUACGACCU	0.455 ± 0.12	-1.26 ± 0.1
CCCCAGCAAUAUUACGUGCC	-2.57 ± 0.24	-4.13 ± 0.27
GAUGAGCAAUAUUACGAUGA	-2.79 ± 0.27	-2.24 ± 0.2
